Measured values: PMC2151661

What was measured:
[1] = target: wild-type human epithelial Na+ channel (α, β, γ ENaC) (human) (UniProt P37088)
[2] = target: wild-type human epithelial Na+ channel (α, β, γ ENaC) (human) (UniProt P37088); remark: listed apart in the source
[3] = target: human ENaC αβγ_(V182G;V193G) (human) (UniProt P37088)
[4] = target: wild-type human epithelial Na+ channel (α, β, γ ENaC) (human) (UniProt P37088); remark: listed apart in the source
[5] = target: human ENaC αβγ_(V182G;V193G) (human) (UniProt P37088); remark: listed apart in the source
[6] = target: human ENaC αβγTh (thrombin consensus sequence LVPRG at γ186-190) (human) (UniProt P37088)
[7] = target: wild-type human epithelial Na+ channel (α, β, γ ENaC) (human) (UniProt P37088); remark: listed apart in the source
[8] = target: human ENaC αβγ_(A190G) (human) (UniProt P37088)
[9] = target: human ENaC αβγ_(V182G;V193G) (human) (UniProt P37088); remark: listed apart in the source
[10] = target: wild-type human epithelial Na+ channel (α, β, γ ENaC) (human) (UniProt P37088); remark: listed apart in the source
[11] = target: human ENaC αβγ_(V182G;V193G) (human) (UniProt P37088); remark: listed apart in the source
[12] = target: wild-type human epithelial Na+ channel (α, β, γ ENaC) (human) (UniProt P37088); remark: listed apart in the source
[13] = target: human ENaC αβγ_(V182G;V193G) (human) (UniProt P37088); remark: listed apart in the source
[14] = target: human ENaC αβγ_(A190G) (human) (UniProt P37088); remark: listed apart in the source

human neutrophil elastase (from UniProt P08246 30-267) (enzyme)
ΔIPR^Norm, 300 nM NE, aprotinin-treated FRT cells (comparison with αβγTh) [1]: 0.6
ΔIPR^Norm against NE concentration, 30 to 1,000 nM, aprotinin-treated FRT cells [2]: 0.75
ΔIPR^Norm against NE concentration, 30 to 1,000 nM, aprotinin-treated FRT cells [3]: 0.52
K1/2 (NE concentration at half maximal stimulation of ΔIPR^Norm) [4]: 100 nM
apparent KM from kobs (1/τ) of INa activation against NE concentration (Eq. 8) [4]: 0.57 µM
K1/2 (NE concentration at half maximal stimulation of ΔIPR^Norm) [5]: 510 nM

human α thrombin (enzyme)
ΔIPR^Norm, 300 nM TH, aprotinin-treated FRT cells [1]: 0.1
K1/2 (TH concentration at half maximal stimulation of ΔIPR^Norm) [6]: 14.8 nM
apparent KM from kobs of INa activation against TH concentration (Eq. 8) [6]: 0.34 µM

porcine pancreatic elastase (from UniProt P00772 27-266) (enzyme)
time constant τ of INa activation by 1,000 nM PE, aprotinin-treated FRT cells [7]: 1.94 min
ΔIPR^Norm, 1,000 nM PE, aprotinin-treated FRT cells [7]: 0.7
ΔIPR^Norm, 1,000 nM PE, aprotinin-treated FRT cells [8]: 0.26
time constant τ of INa activation by 1,000 nM PE, aprotinin-treated FRT cells [9]: 2.17 min
ΔIPR^Norm, 1,000 nM PE, aprotinin-treated FRT cells [9]: 0.89
ΔIPR^Norm, 300 nM PE, aprotinin-treated FRT cells (comparison with αβγTh) [1]: 0.7
time constant τ of INa activation by 300 nM PE, aprotinin-treated FRT cells [10]: 2 min
time constant τ of INa activation by 300 nM PE, aprotinin-treated FRT cells [11]: 3.6 min
K1/2 (PE concentration at half maximal stimulation of ΔIPR^Norm) [12]: 77 nM
apparent KM from kobs of INa activation against PE concentration (Eq. 8) [12]: 0.204 µM
K1/2 (PE concentration at half maximal stimulation of ΔIPR^Norm) [13]: 35 nM
apparent KM from kobs of INa activation against PE concentration (Eq. 8) [13]: 0.29 µM
K1/2 (PE concentration at half maximal stimulation of ΔIPR^Norm) [14]: 1140 nM
